Measured values published in patent publication US20230242665A1 (SYSTIMMUNE, published 2023).
One block for each binder: values may come before it.

What was measured:
[1] = target: T1, TROP2 antigen (extracellular region of TROP2, expressed in 293F cells) (human, UniProt P09758 27-274); assay: ELISA, TROP2-coated plate, anti-human Fc HRP
T1 construct: extracellular domain; The antigen was coated on ELISA plates; For the Octet assay it was biotin-labelled and immobilized on streptavidin sensors; also called TROP2 protein
T1 sequence (looked up): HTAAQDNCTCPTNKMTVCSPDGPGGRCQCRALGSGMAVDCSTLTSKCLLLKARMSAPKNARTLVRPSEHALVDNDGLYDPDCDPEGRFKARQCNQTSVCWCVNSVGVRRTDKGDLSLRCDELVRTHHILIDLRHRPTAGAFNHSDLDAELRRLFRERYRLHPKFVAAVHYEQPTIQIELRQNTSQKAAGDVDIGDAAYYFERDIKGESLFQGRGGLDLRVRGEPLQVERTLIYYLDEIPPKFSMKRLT

[2] = target: T1, TROP2 antigen (extracellular region of …); assay: competition ELISA on TROP2-coated plate; competitor: 7F11-humanized-biotin
[3] = target: T2, TROP2 on BXPC-3 and MCF-7 cells (human, UniProt P09758 27-323); assay: flow cytometry on MCF-7 cells, 1 hr at 4 C, FITC-labelled secondary antibody
T2 construct: whole, on cells; also called BxPC-3 cells; MCF-7 cells (positive cells)
T2 sequence (looked up): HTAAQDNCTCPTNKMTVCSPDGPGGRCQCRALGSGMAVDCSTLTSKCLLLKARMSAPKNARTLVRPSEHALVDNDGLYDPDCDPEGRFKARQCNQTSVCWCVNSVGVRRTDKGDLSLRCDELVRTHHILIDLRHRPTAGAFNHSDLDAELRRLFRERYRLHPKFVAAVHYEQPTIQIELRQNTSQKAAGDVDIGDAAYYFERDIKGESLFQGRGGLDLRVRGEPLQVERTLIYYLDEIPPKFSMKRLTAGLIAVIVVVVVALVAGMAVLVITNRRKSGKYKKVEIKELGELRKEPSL

[4] = target: T2, TROP2 on BXPC-3 and MCF-7 cells; assay: flow cytometry on BXPC-3 cells, 1 hr at 4 C, FITC-labelled secondary antibody
[5] = target: T1, TROP2 antigen (extracellular region of …); assay: BLI (ForteBio Octet), biotin-labelled antigen on streptavidin sensor, antibody in solution
From the text: Pall ForteBio Octet optical analysis technology platform is used to evaluate the absolute affinity of antibody-antigen binding. In this method, the biotin-labeled antigen is immobilized on the surface of the streptavidin biosensor chip, the baseline is balanced for 180 seconds, and then it binds with the antibody diluted in the solution concentration gradient for 30 seconds, which increases the optical thickness of the chip, resulting in The wavelength shifts (Δλ), and then enters the dissociation phase of 30 sec. The interaction between the Trop2 antigen and the corresponding antibody is measured in real time, and the specificity of binding, binding rate, dissociation rate or sample concentration are precisely and accurately measured at each concentration. After summarizing the k-on and k-off values under at least 5 concentration gradients, the KD binding constant is obtained.

[6] = target: T2, TROP2 on BXPC-3 and MCF-7 cells; assay: flow cytometry on BXPC-3 cells, 1 hr at 4 C, FITC-labelled secondary antibody; remark: listed apart in the source
[7] = target: T1, TROP2 antigen (extracellular region of …); assay: competition ELISA on TROP2-coated plate; competitor: 0.5 ng/ml 4D3-humanized-biotin
Procedure: The 4D3-humanized antibody was labeled with biotin, and the inflection point value of the binding curve was determined by ELISA to be 0.5 ng/ml. Prepare an ELISA blocking solution containing 0.5 ng/ml 4D3 biotin-labeled antibody, and configure 50 ug/ml of competing antibodies 4D3-chimeric and 4D3-humanized on the basis of this solution. Add the solution containing biotin-labeled antibody and competing antibody to A1˜A12, 150 ul per well, then aspirate 50 ul and add to B2˜B12, mix well with the pre-added biotin antibody solution with a volume of 100 ul, and then dilute 3 times in sequence To H1˜H12, incubate at 37° C. for 1 hr, then wash and incubate the […], incubate at 37° C. for 1 hr, then wash 3 times, perform color development for 25 min and read the value.
FIG. 12: 4D3-humanized-biotin antibodies compete with ch4D3 and hum4D3 antibodies at 0.02-50 ug/ml, respectively. The two competing antibodies show the same degree of competitive activity and bind to the same epitope.

[8] = target: T1, TROP2 antigen (extracellular region of …); assay: ELISA, TROP2-coated plate, chimeric antibody, anti-human Fc HRP
Procedure: (§1) Dilute the chimeric antibody to a concentration of 50 ug/ml, add it to wells A1˜H1 on the TROP2-coated ELISA plate, and then perform a 3-fold horizontal dilution from A1 to A12; incubate at 37° C. for 1 hr, then rinse and add Mouse anti-human Fc HRP-labeled antibody was incubated at 37° C. for color development.

[9] = target: T1, TROP2 antigen (extracellular region of …); assay: ELISA on a TROP2-coated plate, anti-human Fc HRP detection
Procedure: as §1

B2: 4D3 humanized antibody (antibody, V domains shown)
VH: QVQLVQSGAEVKKPGASVKLSCKASGYTFTSFDINWVRQAPEQRLEWMGWIFPGDGNTKYSQKFQGRATITRDTSASTAYMELSSLRSEDTAVYYCVRGEALYYFDYWGQGTLVTVSS
VL: DIQMTQSPSSLSASVGDRVTITCRASQDINKYLAWYQQKPGKVPKLLIYSTSTLQSGVPSRFSGSGSGTDFTLTISSLQPEDVATYYCLQYDDLFTFGQGTKLEIKR
notes: also called Hu4D3; hu4D3
EC50 [1]: 0.0502 µg/mL
EC50 (read off the curve) [6]: ~0.04 µg/mL
Kd [5]: 30.7 nM
koff [5]: 0.00428 s⁻¹
kon [5]: 139000 M⁻¹ s⁻¹
EC50 [7]: 0.326 µg/mL

B4: 4D3 chimeric antibody (antibody, human IgG1, kappa, V domains shown)
VH: QVQLQQSGAELVKPGASVKLSCKASGYTFTSFDINWVRQRPEQGLEWIGWIFPGDGNTKSNEKFKGKATLTTDKSSSTAYMQLSRLTSEDSAVYFCVRGEALYYFDYWGPGTTLTVSS
VL: DIQMTQSPSSLSASLGGKVTITCKPSQDINKYIAWYQHKPGKGPRLLIHSTSTLQPGIPSRFSGSGSGRDYSFTISNLEPEDIATYYCLQYDDLFTFGSGTKLEIKR
notes: The entries begin with a leader (signal) peptide; also called ch4D3
EC50 [1]: 0.056 µg/mL
EC50 [8]: 0.047 µg/mL
Kd [5]: 6.89 nM
koff [5]: 0.00162 s⁻¹
kon [5]: 235000 M⁻¹ s⁻¹
EC50 (read off the curve) [9]: ~0.05 µg/mL
EC50 [7]: 0.336 µg/mL

More lines, now with the values ahead:

EC50 [1]: 0.0601 µg/mL
EC50 [2]: 0.856 µg/mL
EC50 (read off the curve) [3]: ~0.04 µg/mL
EC50 (read off the curve) [4]: ~0.05 µg/mL
Kd [5]: 0.0994 nM
koff [5]: 1.85e-05 s⁻¹
kon [5]: 186000 M⁻¹ s⁻¹
B1: 7F11 humanized antibody (antibody, V domains shown)
VH: QVQLVQSGAEVKKPGASVKVSCKASGYTFTDHVISWVRQATGQGLEWMGQIYPGSDNSYYAQKFQGRVTLTADKSINTAYMELSSLRSEDTAVYYCAREGYGYGKNGVGYAMDYWGQGTLVTVSS
VL: DIVMTQSPDSLAVSLGERATINCKASQSVSNDVVWYQQKPGQPPKLLIYYASNRYTGVPDRFSGSGYGTDFTLTISSLQAEDVAVYYCQQDYSSPWTFGGGTKVEIKR
notes: also called Hu7F11; hu7F11

EC50 [1]: 0.061 µg/mL
EC50 [2]: 0.732 µg/mL
EC50 [8]: 0.071 µg/mL
Kd [5]: 0.0611 nM
koff [5]: 1.45e-05 s⁻¹
kon [5]: 243000 M⁻¹ s⁻¹
EC50 (read off the curve) [9]: ~0.07 µg/mL
B3: 7F11 chimeric antibody (antibody, human IgG1, kappa, V domains shown)
VH: QVQLQQSGPEVVKPGASVKMSCKASGYTFTDHVISWVKQRTGQGLEWIGQIYPGSDNSYYSEKLKDKATLTADKSSNTAYMQLVSLTSEDSAVYFCAREGYGYGKNGVGYAMDYWGQGTSVTVSS
VL: SIVMTQTPKFLLVSAGDRVTITCKASQSVSNDVVWYQQKPGQSPKLLIYYASNRYTGVPDRFTGSGYGTDFTFTISTAQAEDLAVYFCQQDYSSPWTFGGGTKLEIKR
notes: The entries begin with a leader (signal) peptide; also called ch7F11
